Target: the molecule itself
Assay: native gel or EMSA; PAGE run under native conditions and Western blot with anti-His IgG of hLAMAN expressed in K. phaffii for the indicated time periods; single band at approx. 230 kDa

B1: Human lysosomal α‐mannosidase (enzyme, UniProt O00754 50-1011, looked up)
chain: GGYETCPTVQPNMLNVHLLPHTHDDVGWLKTVDQYFYGIKNDIQHAGVQYILDSVISALLADPTRRFIYVEIAFFSRWWHQQTNATQEVVRDLVRQGRLEFANGGWVMNDEAATHYGAIVDQMTLGLRFLEDTFGNDGRPRVAWHIDPFGHSREQASLFAQMGFDGFFFGRLDYQDKWVRMQKLEMEQVWRASTSLKPPTADLFTGVLPNGYNPPRNLCWDVLCVDQPLVEDPRSPEYNAKELVDYFLNVATAQGRYYRTNHTVMTMGSDFQYENANMWFKNLDKLIRLVNAQQAKGSSVHVLYSTPACYLWELNKANLTWSVKHDDFFPYADGPHQFWTGYFSSRPALKRYERLSYNFLQVCNQLEALVGLAANVGPYGSGDSAPLNEAMAVLQHHDAVSGTSRQHVANDYARQLAAGWGPCEVLLSNALARLRGFKDHFTFCQQLNISICPLSQTAARFQVIVYNPLGRKVNWMVRLPVSEGVFVVKDPNGRTVPSDVVIFPSSDSQAHPPELLFSASLPALGFSTYSVAQVPRWKPQARAPQPIPRRSWSPALTIENEHIRATFDPDTGLLMEIMNMNQQLLLPVRQTFFWYNASIGDNESDQASGAYIFRPNQQKPLPVSRWAQIHLVKTPLVQEVHQNFSAWCSQVVRLYPGQRHLELEWSVGPIPVGDTWGKEVISRFDTPLETKGRFYTDSNGREILERRRDYRPTWKLNQTEPVAGNYYPVNTRIYITDGNMQLTVLTDRSQGGSSLRDGSLELMVHRRLLKDDGRGVSEPLMENGSGAWVRGRHLVLLDTAQAAAAGHRLLAEQEVLAPQVVLAPGGGAAYNLGAPPRTQFSGLRRDLPPSVHLLTLASWGPEMVLLRLEHQFAVGEDSGRNLSAPVTLNLRDLFSTFTITRLQETTLVANQLREAASRLKWTTNTGPTPHQTPYQLDPANITLEPMEIRTFLASVQWKEVDG
notes: human lysosomal alpha-mannosidase (hLAMAN, EC 3.2.1.24), gene MAN2B1; That vector probably adds the alpha-factor secretion signal; it speaks of a homodimer of the polypeptides A-E, (A-E)2; also called hLAMAN; MAN2B1; source: K. phaffii X33 (pPICZalpha), methanol-induced; aliquots of pellet and supernatant analysed, not purified
Q: With B1 as the protein, how does the “stoichiometry N” value read?
A: Its value is 2.

Source: PMC11931667, “A new view of missense mutations in α‐mannosidosis using molecular dynamics conformational ensembles” (Protein Science : A Publication of the Protein Society, 2025)
